Assays:
[1] = Subcutaneous immunization, ELISA for antigen-specific serum IgG (anti-drug antibodies); format: in vivo, BALB/c mice; details: repeated subcutaneous immunization with adjuvant, Days 0, 21, 35; serum to Day 42
Procedure: Adjuvant was purchased from TiterMax. […] All the procedures related to animal handling, care and treatment in the study were performed according to the guidelines set forth in an ACUP protocol for polyclonal antisera production in mice, approved by the Institutional Animal Care and Use Committee (IACUC) of Josman LLC.

PD-1/PD-L1 complex = PD-1/PD-L1 complex (Homo sapiens, UniProt Q9NZQ7); details: in vitro, reference 31; read-out: IC50, dissociation of PD-1/PD-L1 complex; cited from earlier work
[2] = target: Human PD-1-Fc (R&D Systems cat #1086-PD-050), biotinylated (human) (UniProt Q15116); assay: SPR, D-peptidic compound on natural L-PD-1 (Example 1)
[3] = target: Human PD-1-Fc (R&D Systems cat #1086-PD-050), biotinylated (human) (UniProt Q15116); assay: SPR (Table 2)

Chain of Human PD-1-Fc (R&D Systems cat #1086-PD-050), biotinylated (human) (Q15116 25-167 limits assumed): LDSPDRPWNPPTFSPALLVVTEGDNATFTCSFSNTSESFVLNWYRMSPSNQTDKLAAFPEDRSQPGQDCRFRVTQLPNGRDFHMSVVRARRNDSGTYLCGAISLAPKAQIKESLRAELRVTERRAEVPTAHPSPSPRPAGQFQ
Chain of PD-1/PD-L1 complex (Q9NZQ7 19-238 limits assumed, one chain of several): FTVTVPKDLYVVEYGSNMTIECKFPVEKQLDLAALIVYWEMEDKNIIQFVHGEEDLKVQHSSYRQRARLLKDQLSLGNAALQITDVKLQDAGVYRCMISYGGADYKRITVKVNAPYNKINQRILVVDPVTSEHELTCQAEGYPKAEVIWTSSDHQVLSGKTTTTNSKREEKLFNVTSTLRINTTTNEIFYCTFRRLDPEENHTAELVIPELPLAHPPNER

## nivolumab
[1]
  anti-drug antibody response (antigen-specific serum IgG): strong serum IgG titers

## C[C@@H](O)[C@H](NC(=O)N[C@@H](CC(N)=O)c1nc([C@H](N)CO)no1)C(=O)O [CA-170]
PD-1/PD-L1 complex
  IC50: 5000 to 10000 µM

B1: RFX-977296 (designed binder)
chain: TIDQWLLKNAKEDAIAELKKAGITSDLYFNWINVAGSVSSVNFHKNYILKAHA
modifications: D-protein
[2]
  Kd: 0.625 µM
[3]
  Kd: 1.51 µM

B2: 977978 (designed binder)
chain: TIDQWLLKNAKEDAIAELKKAGITCDLYFNWINVAGSVSSVNFHKNYILKAHA
modifications: not fully specified; D-protein
[3]
  Kd: 0.114 µM

From patent publication US20230051872A1, “Multivalent D-Peptidic Compounds for Target Proteins” (Reflexion Pharmaceuticals, Inc., priority 2019, published 2023)
